We go through one protein from patent US6949522B2, “β-2′- or 3′-halonucleosides” (Pharmasset, Inc., priority 2001, dated 2005).

Substrate in the data set: Nc1ncnc2c1ncn2[C@@H]1O[C@H](CO)[C@@H](O)[C@H]1O
Put plainly: purified protein, by the assay type. To be noted: other: 25° C., phosphate buffer pH 7.4, substrate of ADA.

Protocol: Assays were performed at 25° C. in phosphate buffer solution (pH 7.4) with substrate concentrations in the range of 15-100 μM and with 0.15 unit of adenosine deaminase (EC.3.5.4.4. from calf intestinal mucosa). The assays were monitored with a UV spectrometer at 265 nm. […] The concentration (ct) of each substrate at a certain time (t) was calculated from the absorbance (At) at that time (t), where it was assumed that the total change of absorbance (A0−A∞) was directly related to the disappearance of the substrate.^35 Initial hydrolysis rates for each substrate concentration were measured manually through graphical curve fitting of the concentration versus time data for reaction of each substrate. From Lineweaver-Burke plot of these initial rates, Vmax (maximum velocity) and KM (Michaelis constant) were obtained for each substrate and kcat was also calculated with 0.15 unit of the enzyme (M.W. 33,000) in 2 mL of buffer solution.

B1: adenosine deaminase (EC.3.5.4.4. from calf intestinal mucosa) (Bos taurus) (protein)
chain: MAQTPAFNKPKVELHVHLDGAIKPETILYYGRKRGIALPADTPEELQNIIGMDKPLSLPEFLAKFDYYMPAIAGCREAVKRIAYEFVEMKAKDGVVYVEVRYSPHLLANSKVEPIPWNQAEGDLTPDEVVSLVNQGLQEGERDFGVKVRSILCCMRHQPSWSSEVVELCKKYREQTVVAIDLAGDETIEGSSLFPGHVKAYAEAVKSGVHRTVHAGEVGSANVVKEAVDTLKTERLGHGYHTLEDATLYNRLRQENMHFEVCPWSSYLTGAWKPDTEHPVVRFKNDQVNYSLNTDDPLIFKSTLDTDYQMTKNEMGFTEEEFKRLNINAAKSSFLPEDEKKELLDLLYKAYGMPSPASAEQCL
As usually defined, the Km is the concentration of substrate that gives half-maximal velocity. The kcat is the maximal rate divided by the concentration of active sites. Usually kcat/Km stands for the turnover number divided by the Michaelis constant. For the protein B1, the Km amounted to 24.5 µM, the kcat was 76.4 s⁻¹ and the kcat/Km was found to be 3.1e+06 M⁻¹ s⁻¹.
